In experiment [1] the target is HLA-A*30:02. Description: IEDB peptide-MHC binding, purified MHC/competitive/radioactivity; filed as Kd, often an IC50 or EC50 that approximates it; ≥ and ≤ were set here for values at or beyond the usual limits of such assays.
Experiment [2] concerns the target HLA-B*15:01. Described as above.
Experiment [3] concerns the target HLA-B*07:02. The description is as above.
Experiment [4] addresses HLA-A*02:01. Briefly: IEDB peptide-MHC binding, purified MHC/competitive/fluorescence; ≥ and ≤ were set here for values at or beyond the usual limits of such assays.
Experiment [5] concerns the target HLA-A*24:02. Described as above.
Experiment [6] concerns the target HLA-B*44:02. Briefly: IEDB peptide-MHC binding, purified MHC/competitive/radioactivity; filed as Kd, often an IC50 or EC50 that approximates it; ≥ and ≤ were set here for values at or beyond the usual limits of such assays.
The target of experiment [7] is HLA-B*44:03. The experiment is described as above.
For experiment [8], the target named is HLA-A*01:01. The description is as above.
Experiment [9] has as its target HLA-A*24:02. The description is as above.
For experiment [10], the target named is HLA-B*08:01. The description is as above.
The target of experiment [11] is HLA-A*23:01. Described as above.
The target of experiment [12] is HLA-B*40:01. Briefly: IEDB peptide-MHC binding, purified MHC/direct/fluorescence; filed as Kd, often an IC50 or EC50 that approximates it; ≥ and ≤ were set here for values at or beyond the usual limits of such assays.
Experiment [13] addresses HLA-B*44:02. The experiment is described as above.
The target in experiment [14] is HLA-B*18:01. Described as above.
The target of experiment [15] is HLA-A*02:06. Briefly: IEDB peptide-MHC binding, purified MHC/competitive/radioactivity; filed as Kd, often an IC50 or EC50 that approximates it; ≥ and ≤ were set here for values at or beyond the usual limits of such assays. The note with it: source organism: Dengue virus 2 Jamaica/1409/1983.
In experiment [16] the target is HLA-A*02:01. Description: IEDB peptide-MHC binding, purified MHC/direct/fluorescence; filed as Kd, often an IC50 or EC50 that approximates it; ≥ and ≤ were set here for values at or beyond the usual limits of such assays. The note with it: source organism: Brucella suis.
In experiment [17] the target is HLA-B*08:01. Described as above. The note with it: source organism: Brucella suis.
The target of experiment [18] is HLA-B*27:05. Described as above. Conditions: source organism: Brucella suis.
The target in experiment [19] is HLA-A*31:01. The description is as above. The note with it: source organism: Brucella suis.
Experiment [20] deals with HLA-B*58:01. The description is as above.
Experiment [21] addresses HLA-B*15:01. The experiment is described as above. The note with it: source organism: Brucella suis.
The target in experiment [22] is HLA-B*07:02. The description is as above. Conditions: source organism: Brucella suis.
Experiment [23] concerns the target HLA-A*01:01. The description is as above. Conditions: source organism: Brucella suis.
The target of experiment [24] is HLA-A*11:01. Described as above. The note with it: source organism: Brucella suis.
In experiment [25] the target is HLA-A*69:01. The description is as above. The note with it: source organism: Brucella suis.
In experiment [26] the target is HLA-A*03:01. The description is as above. The note with it: source organism: Brucella suis.
Experiment [27] has as its target HLA-A*26:01. The description is as above.
Experiment [28] has as its target HLA-B*57:01. The experiment is described as above. Conditions: source organism: Bacillus cereus.
The mark [29] stands for this setting: source organism: Dengue virus 1 Brazil/97-11/1997.
Setting [30] is: source organism: Dengue virus 4 Philippines/H241/1956.
Where [31] appears, read: source organism: Vaccinia virus WR.
[32] abbreviates: source organism: Dengue virus 3 Martinique/1243/1999.
Setting [33] is: source organism: Dengue virus 2 Jamaica/1409/1983.
Where [34] appears, read: source organism: Zaire ebolavirus.
Where [35] appears, read: source organism: Vaccinia virus Copenhagen.
The mark [36] stands for this setting: source organism: Dengue virus 4 Dominica/814669/1981.
Where [37] appears, read: source organism: Sudan ebolavirus.

Turning to RPQPMEHKY, the Kd in [1] (setting [29]) amounted to 134 nM.
With YQVKTETTIL, in [2] (setting [30]), the dissociation constant (Kd) is 43.1 nM.
Consider SARGLCAHI, for which the Kd in experiment [2] (setting [31]) amounted to 1220 nM.
For IQNSGGTSIF, the Kd in experiment [2] (setting [32]) was determined as 3.01 nM.
For LARVGRERL, the Kd in [3] (setting [33]) worked out at 298 nM.
SSQVKCCHY: the Kd in experiment [2] (setting [31]) stood at 347 nM.
In the case of VHSQGREAA, the figures for the IC50 in [4] (setting [34]) and in [5] (setting [34]) were 40400 nM and 1900 nM, respectively.
In the case of LESGAVKYL, the half-maximal inhibitory concentration (IC50) in experiment [4] (setting [34]) is at least 222000 nM; in experiment [5] (setting [34]) it was at least 128000 nM.
Turning to TSGKYFSTF, the Kd in experiment [2] (setting [35]) came out at 85.9 nM.
For the sequence AICSAVPVHW, the dissociation constant (Kd) in experiment [6] (setting [32]) was found to be 2400 nM.
With LLSRYDEHF, the equilibrium dissociation constant (Kd) in experiment [2] (setting [31]) worked out at 54 nM.
Take LMCPDECPG: the Kd in experiment [2] (setting [31]) turned out to be 899 nM.
On to GCGRGGWSY, for which the equilibrium dissociation constant (Kd) in experiment [1] (setting [32]) turned out to be 439 nM.
With SLIYLCTFM, the Kd in experiment [2] (setting [31]) was 4.45 nM.
Take IQTSGTTTIF: the Kd in [2] (setting [29]) worked out at 5.3 nM.
On to IEEVMRSRW, for which the figures for the Kd in [7] (setting [29]) and in experiment [6] (setting [29]) were 36.6 nM and 178 nM, respectively.
As for RPMFAVGLL, the dissociation constant (Kd) in experiment [3] (setting [29]) came out at 5.06 nM.
RFEVKKRDG: the IC50 in experiment [4] (setting [34]) was at least 568000 nM; in [5] (setting [34]), at least 81100 nM.
AGGMLIACY: the Kd in experiment [1] (setting [29]) came to 460 nM.
As for KFLLIHQGM, the IC50 in experiment [4] (setting [34]) is at least 150000 nM; in [5] (setting [34]), 256 nM.
On to KQFKQDSKY, for which the Kd in experiment [2] (source organism: Lymphocytic choriomeningitis virus (strain Armstrong) (clone 53b)) amounted to 13 nM.
Turning to LSKSEFNTY, the Kd in experiment [2] (setting [29]) amounted to 7.88 nM; in experiment [8] (setting [29]) it was 2740 nM; in experiment [1] (setting [29]) it was 11.1 nM.
In the case of LENVMWKQI, the Kd in [7] (setting [36]) turned out to be 157 nM; in experiment [6] (setting [36]), 105 nM.
On to RSMPGTRRVM, for which the dissociation constant (Kd) in [3] (setting [32]) is 91.9 nM.
For LFMALVAFL, in experiment [9] (setting [33]), the Kd worked out at 8200 nM.
IESEKNETW: the Kd in [7] (setting [29]) stood at 279 nM; in [6] (setting [29]), 87 nM.
For the sequence SYGEYQSYS, the IC50 in [5] (setting [34]) amounted to 52300 nM.
Take KPKGKVVDL: the Kd in experiment [10] (setting [30]) was determined as 124 nM; in [3] (setting [30]), 43.4 nM.
With LWTTLLSLTF, the Kd in experiment [11] (setting [29]) amounted to 20.6 nM; in experiment [9] (setting [29]) it was 14.3 nM.
QHNAAGIAW returned an IC50 in experiment [5] (setting [37]) of 21200 nM.
For the sequence NEVHTWTEQ, the Kd in [7] (setting [29]) came out at 6680 nM.
For the sequence LALITVSGLY, the values for the Kd in [8] (setting [30]) and in [1] (setting [30]) were 12700 nM and 5.26 nM, respectively.
For the sequence NITDKINQI, the IC50 in [4] (setting [37]) is 43700 nM; in [5] (setting [37]), 5960 nM.
WYAQIQPHW: the values for the Kd in [11] (setting [33]) and in [9] (setting [33]) were 62.1 nM and 24.3 nM, respectively.
Regarding YGANYFLQI, in experiment [2] (setting [31]), the Kd turned out to be 1760 nM.
On to TEQMAPHHKI, for which the Kd in experiment [6] (setting [30]) stood at 41.7 nM.
Consider YECETYKEL, for which the Kd in [12] (source organism: Amur virus) was 14.8 nM; in [13] (source organism: Amur virus), at least 20000 nM; in experiment [14] (source organism: Amur virus), 5.3 nM.
FIYLLFASM: the Kd in [10] (setting [31]) came out at 1680 nM; in experiment [2] (setting [31]) it was 999 nM.
As to VRSETKQKF, in [5] (source organism: Vaccinia virus), the IC50 worked out at 1820 nM.
For the sequence IRWLGGILP, the figures for the half-maximal inhibitory concentration (IC50) in experiment [4] (setting [31]) and in experiment [5] (setting [31]) were at least 156000 nM and 48100 nM, respectively.
With NEHKSTWHY, the results for the Kd in experiment [7] (setting [29]) and in experiment [6] (setting [29]) were 173 nM and 84.1 nM, respectively.
For the sequence RRLTSREVLL, in experiment [10] (setting [29]), the Kd is 5480 nM.
On to VPLQWIASA, for which the Kd in experiment [3] (source organism: Dengue virus 3 Sri Lanka/1266/2000) is 178 nM.
As to AIKRKLRTL, the Kd in experiment [10] (setting [29]) is 17.3 nM.
For RNIARHLAL, the Kd in [10] (setting [31]) was found to be 3.24 nM.
For LGKCGSCVY, the Kd in experiment [2] (setting [32]) was 110 nM.
With SMKYLMLLF, the Kd in [2] (setting [31]) was 3.84 nM.
KENGVDLSV registered a dissociation constant Kd in experiment [14] (source organism: West Nile virus) of 5220 nM.
Consider RKKARSTPF, for which, in [10] (setting [33]), the Kd was 413 nM.
Consider RTPQDNQLIY, for which the Kd in [8] (setting [30]) stood at 919 nM; in experiment [1] (setting [30]), 198 nM.
On to VLLDYGLHG, for which the Kd in experiment [2] (setting [31]) was at least 27500 nM.
Turning to SFEEMYRHI, in [5] (setting [34]), the concentration for half-maximal inhibition (IC50) came to 6110 nM.
In the case of SGTETKITF, the IC50 in [5] (setting [35]) is 11300 nM.
WQQVPFCSH: the Kd in [2] (setting [29]) amounted to 102 nM.
Consider APHHKILAKA, for which the Kd in experiment [3] (setting [30]) worked out at 407 nM.
Consider SIILEFFLI, for which the results for the Kd in experiment [15] and in experiment [9] (setting [33]) were 1.59 nM and 1250 nM, respectively.
In experiment [5] (source organism: Variola virus), ERPVILSLP showed a half-maximal inhibitory concentration (IC50) of 18400 nM.
Regarding RPTPTGTVMD, in experiment [3] (setting [32]), the Kd stood at 41.5 nM.
Turning to MLKLQKCVM, in experiment [10] (setting [31]), the Kd is 9.25 nM.
QEGAMHTAL: the Kd in experiment [13] (source organism: Dengue virus) is 6660 nM; in experiment [14] (source organism: Dengue virus), 39.5 nM.
For the sequence DENPYKTWAY, the Kd in [7] (setting [32]) amounted to 8.64 nM.
Turning to SPMPRHHSI, the Kd in [10] (setting [31]) amounted to 1110 nM.
QKEGVFHTMW: the Kd is 411 nM in experiment [7] (setting [32]) and 181 nM in [6] (setting [32]).
As for FRFEVKKRD, the IC50 in [4] (setting [34]) is at least 733000 nM; in experiment [5] (setting [34]), 19500 nM.
AQKRTAAGIM: the Kd in experiment [2] (setting [29]) was 25.6 nM.
With DVIGNDRQE, the Kd in [16], in experiment [17], in experiment [18], in experiment [19], in [20] (source organism: Brucella suis) and in [21] was at least 20000 nM each time. Moreover, the Kd in experiment [12] (source organism: Brucella suis), in experiment [22], in experiment [23], in experiment [24], in experiment [25] and in [26] was at least 20000 nM each time. In addition, the Kd in [27] (source organism: Brucella suis) and in [13] (source organism: Brucella suis) was at least 20000 nM each time.
LGTIYGFIW: the Kd in [20] (source organism: Bacillus cereus) is 6.3 nM; in experiment [28], 521 nM.
Sequence FGVDGEAGF yielded a Kd in [27] (source organism: Mycobacterium tuberculosis variant bovis) of at least 20000 nM.
Turning to FLKHKYGSL, the Kd in [10] (setting [31]) was 0.135 nM.
Still for that read-out and setting: in the case of ELDLHFQRI it was 3260 nM.
As for NEMVLLTMK, in experiment [6] (setting [29]), the Kd came out at 865 nM.
TLGYCMIRW had an IC50 in experiment [5] (setting [31]) of at least 105000 nM.
For the sequence TTIRYQATG, the IC50 in [5] (setting [34]) was found to be 58300 nM.

Values taken from the Immune Epitope Database (IEDB).
